Changes are numbered by the printed parent chain. Numbers in names are those of the source.
B1: M47V/N48K/K89N (protein)
chain: VIHVTKEVKEVATLSCGHNVSVEELAQTRIYWQKEKKMVLTMMSGDVKIWPEYKNRTIFDITNNLSIVILALRPSDEGTYECVVLKYENDAFKREHLAEVTLSVKAD
B2: E35D/M47V/N48K/K89N (protein)
chain: B1 chain with E35D
B3: E35D/D46V/M47V/N48K/V68M (protein)
chain: B1 chain with E35D, D46V, V68M, N89K
B4: E35D/D46V/M47V/V68M/L85Q (protein)
chain: B1 chain with E35D, D46V, K48N, V68M, L85Q, N89K
B5: E35D/M47V/N48K/V68M/L85Q (protein)
chain: B1 chain with E35D, V68M, L85Q, N89K
B6: E35D/M47V/V68M/L85Q/K89N (protein)
chain: B1 chain with E35D, K48N, V68M, L85Q
B7: M47L/V68M/A71G/D90G (protein)
chain: B1 chain with V47L, K48N, V68M, A71G, N89K, D90G
B8: H18Y/V68M/A71G/D90G (protein)
chain: B1 chain with H18Y, V47M, K48N, V68M, A71G, N89K, D90G
B9: H18Y/A26E/E35D/M47L (protein)
chain: B1 chain with H18Y, A26E, E35D, V47L, K48N, N89K
B10: E35D/M47L/A71G/D90G (protein)
chain: B1 chain with E35D, V47L, K48N, A71G, N89K, D90G
B11: E35D/M47L/V68M/D90G (protein)
chain: B1 chain with E35D, V47L, K48N, V68M, N89K, D90G
B12: A26E/M47L/A71G/D90G (protein)
chain: B1 chain with A26E, V47L, K48N, A71G, N89K, D90G
B13: A26E/E35D/V68M/D90G (protein)
chain: B1 chain with A26E, E35D, V47M, K48N, V68M, N89K, D90G
B14: A26E/E35D/M47L/D90G (protein)
chain: B1 chain with A26E, E35D, V47L, K48N, N89K, D90G

What was measured:
huCTLA4 = huCTLA4 (Homo sapiens, UniProt P16410); assay: Flow binding to CHO cells stably expressing CTLA4; set-up: huCTLA4 and huPD-L1, full-length mammalian surface expression constructs were generated; expressed in transfected cells; host or cells: CHO cells, lentiviral transduction, sorted to >98% purity; details: for CTLA4 MFI at 33.3 nM: CHO cells stably expressing CTLA4
Summary of the method: (§1)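 Flow cytometry on transfected CHO cells or CD28+ Jurkat/IL2 reporter cells, blocked 20 min in PBS/1% BSA/0.1% azide. Fusion protein 45 min on ice; PE anti-human Fc 1:150, 30 min on ice; fixed in 2% formaldehyde. Read-out PE MFI, EC50 calculated.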

huPD-L1 = huPD-L1 (Homo sapiens, UniProt Q9NZQ7); assay: Flow binding to CHO cells stably expressing PD-L1; set-up: huCTLA4 and huPD-L1, full-length mammalian surface expression constructs were generated; expressed in transfected cells; host or cells: CHO cells, lentiviral transduction, sorted to >98% purity; details: for PD-L1 MFI at 33.3 nM: CHO cells stably expressing PD-L1; for Ratio of PDL1:CD28: ratio of MFI at 33.3 nM
Summary of the method: as §1

CD28 [1] = biological target: T1, CD28 (Homo sapiens, UniProt P10747); assay: Flow binding to Jurkat/IL2 reporter cells (CD28); set-up: host or cells: Jurkat cells expressing an IL-2-luciferase reporter; details: for CD28 MFI at 33.3 nM: Jurkats (CD28)
Summary of the method: as §1

CD28 [2] = biological target: T1, CD28; assay: Jurkat/IL2 + CHO/OKT3 +/- PD-L1 reporter assay: PD-L1-dependent CD28 costimulation; format: cell-based; set-up: host or cells: Jurkat cells expressing an IL-2-luciferase reporter; details: Jurkat/IL2 + CHO/OKT3/PD-L1; for Fold Increase over WT CD80-IgV-Fe: 5.0 nM
Summary of the method: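 Jurkat reporter cells (100,000/well) preincubated 15 min at room temperature with test protein, then cocultured 5 h at 37 °C with CHO aAPCs bearing anti-CD3 scFv (OKT3) with or without PD-L1. Luciferase luminescence (RLU) read after lysis-substrate addition.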

[3] = Table E19, MFI at 33.3 nM relative to WT CD80 ECD-Fc (Abcam)
[4] = Table E20, MFI at 33.3 nM relative to CD80 WT IgV-Fc

Chain of huCTLA4 (P16410 36-223): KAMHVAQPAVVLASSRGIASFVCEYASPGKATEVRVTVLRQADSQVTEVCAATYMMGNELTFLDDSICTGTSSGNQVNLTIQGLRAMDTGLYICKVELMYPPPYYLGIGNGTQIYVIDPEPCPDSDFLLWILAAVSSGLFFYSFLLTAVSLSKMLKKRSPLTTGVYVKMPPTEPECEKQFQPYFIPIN
Chain of huPD-L1 (Q9NZQ7 19-290): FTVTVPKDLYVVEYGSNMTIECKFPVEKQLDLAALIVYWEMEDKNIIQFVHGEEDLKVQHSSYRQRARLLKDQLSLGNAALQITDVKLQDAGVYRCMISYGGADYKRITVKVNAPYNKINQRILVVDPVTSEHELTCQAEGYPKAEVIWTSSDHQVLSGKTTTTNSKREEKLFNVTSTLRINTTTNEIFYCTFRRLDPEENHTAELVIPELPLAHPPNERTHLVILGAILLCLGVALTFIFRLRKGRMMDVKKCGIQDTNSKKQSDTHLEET

| Molecule | CTLA4 MFI at 33.3 nM (huCTLA4; Table E19) | CTLA4 Fold change to WT CD80 (huCTLA4; [3]) | PD-L1 MFI at 33.3 nM (huPD-L1; Table E19) | PD-L1 Fold change to WT CD80 (huPD-L1; [3]) | Ratio of PDL1:CD28 (huPD-L1; Table E19) | CD28 MFI at 33.3 nM (CD28 [1]; Table E19) | CD28 Fold change to WT CD80 (CD28 [1]; [3]) | Fold Increase over WT CD80-IgV-Fe (CD28 [2]; Table E21) | Relative Luciferase Units (RLU), CD80 Conc 5.0 nM (CD28 [2]; Table E21) | CTLA4 MFI at 33.3 nM (huCTLA4; Table E20) | CTLA4 Fold change to WT CD80 (huCTLA4; [4]) | PD-L1 MFI at 33.3 nM (huPD-L1; Table E20) | PD-L1 Fold change to WT CD80 (huPD-L1; [4]) | Ratio of PDL1:CD28 (huPD-L1; Table E20) | CD28 MFI at 33.3 nM (CD28 [1]; Table E20) | CD28 Fold change to WT CD80 (CD28 [1]; [4]) | Fold Increase over WT CD80-IgV-Fe (CD28 [2]; Table E22) | Relative Luciferase Units (RLU), CD80 Conc 5.0 nM (CD28 [2]; Table E22) |
| --- | --- | --- | --- | --- | --- | --- | --- | --- | --- | --- | --- | --- | --- | --- | --- | --- | --- | --- |
| B1 | 42071 | 1.0 fold | 2366 | 18.5 fold | 6.5 | 366 | 0.5 fold | 4.1 fold | 472 RLU |  |  |  |  |  |  |  |  |  |
| B2 | 43756 | 1.1 fold | 6669 | 52.1 fold | 9.5 | 701 | 1.0 fold | 7.1 fold | 814 RLU |  |  |  |  |  |  |  |  |  |
| B3 | 23880 | 0.6 fold | 25940 | 202.7 fold | 23.9 | 1085 | 1.5 fold | 6.1 fold | 696 RLU |  |  |  |  |  |  |  |  |  |
| B4 | 36463 | 0.9 fold | 26290 | 205.4 fold | 79.4 | 331 | 0.5 fold | 8.5 fold | 980 RLU |  |  |  |  |  |  |  |  |  |
| B5 | 26104 | 0.6 fold | 10479 | 81.9 fold | 88.8 | 118 | 0.2 fold | 7.9 fold | 907 RLU |  |  |  |  |  |  |  |  |  |
| B6 | 30276 | 0.7 fold | 12085 | 94.4 fold | 49.1 | 246 | 0.3 fold | 7.4 fold | 854 RLU |  |  |  |  |  |  |  |  |  |
| B7 |  |  |  |  |  |  |  |  |  | 17418 | 12.8 fold | 31114 | 713.6 fold | 8.6 | 3610 | 82.2 fold | 1.98 fold | 771 RLU |
| B8 |  |  |  |  |  |  |  |  |  | 22321 | 16.4 fold | 30670 | 703.4 fold | 9.0 | 3414 | 77.8 fold | 2.04 fold | 797 RLU |
| B9 |  |  |  |  |  |  |  |  |  | 23990 | 17.7 fold | 9951 | 228.2 fold | 30.7 | 324 | 7.4 fold | 3.10 fold | 1208 RLU |
| B10 |  |  |  |  |  |  |  |  |  | 20921 | 15.4 fold | 12073 | 276.9 fold | 9.1 | 1331 | 30.3 fold | 2.01 fold | 784 RLU |
| B11 |  |  |  |  |  |  |  |  |  | 27607 | 20.3 fold | 23482 | 538.6 fold | 6.9 | 3414 | 77.8 fold | 1.82 fold | 711 RLU |
| B12 |  |  |  |  |  |  |  |  |  | 21955 | 16.2 fold | 13204 | 302.8 fold | 6.8 | 1955 | 44.5 fold | 2.12 fold | 827 RLU |
| B13 |  |  |  |  |  |  |  |  |  | 13879 | 10.2 fold | 6987 | 160.3 fold | 4.2 | 1683 | 38.3 fold | 2.23 fold | 871 RLU |
| B14 |  |  |  |  |  |  |  |  |  | 18167 | 13.4 fold | 9577 | 219.7 fold | 6.2 | 1550 | 35.3 fold | 2.16 fold | 843 RLU |

— US20220177587A1, “METHODS AND USES OF VARIANT CD80 FUSION PROTEINS AND RELATED CONSTRUCTS” (Alpine Immune Sciences, Inc., priority 2018, published 2022)
